The target in assay [1] is T1, soluble human CTLA-4 expressed with a C-terminal myc-myc-polyhistidine tag (human).
T1 construct: soluble protein; also called hCTLA-4.mmh; hCTLA4.mmh
Kind of assay: SPR, mAb capture, 25 C.

Assay [2] deals with T2, soluble Macaca fascicularis CTLA-4 expressed with a C-terminal myc-myc-polyhistidine tag (Macaca fascicularis).
T2 construct: soluble protein; also called mf CTLA-4.mmh; mfCTLA4.mmh
T2 chain: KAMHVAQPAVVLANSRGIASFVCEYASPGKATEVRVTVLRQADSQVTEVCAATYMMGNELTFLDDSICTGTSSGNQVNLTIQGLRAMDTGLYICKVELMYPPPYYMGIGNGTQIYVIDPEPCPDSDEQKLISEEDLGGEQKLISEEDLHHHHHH
Kind of assay: SPR, mAb capture, 25 C.

Assay [3] deals with T3, human CTLA-4 (amino acids M1-N223) on stably transfected VI-fibroblast cells (human, UniProt P16410 36-223).
T3 construct: also called VI-fibroblast/hCTLA-4
Kind of assay: ECL cell binding, VI-fibroblast/hCTLA-4 cells.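 Also: antibodies bound to the cells on carbon electrode plates, detected via SULFO-TAG anti-IgG secondary (1 h, RT), electrochemiluminescence read as RLU over a concentration range.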

Assay [4] deals with T4, recombinant hCTLA-4-mFc (human CTLA-4 extracellular domain with a C-terminal Fc portion of mouse IgG2a) (human).
T4 construct: also called dimeric CTLA-4 protein
The experiment in a line: competition ELISA, 200 pM hCTLA-4-mFc on plate-coated hB7-1-hIgG1-6His.

Assay [5] has as its target T4, recombinant hCTLA-4-mFc (human CTLA-4 …). Kind of assay: competition ELISA, 400 pM hCTLA-4-mFc on plate-coated hB7-2-hIgG1-6His.

T4 sequence (chain, as listed by the source limits assumed): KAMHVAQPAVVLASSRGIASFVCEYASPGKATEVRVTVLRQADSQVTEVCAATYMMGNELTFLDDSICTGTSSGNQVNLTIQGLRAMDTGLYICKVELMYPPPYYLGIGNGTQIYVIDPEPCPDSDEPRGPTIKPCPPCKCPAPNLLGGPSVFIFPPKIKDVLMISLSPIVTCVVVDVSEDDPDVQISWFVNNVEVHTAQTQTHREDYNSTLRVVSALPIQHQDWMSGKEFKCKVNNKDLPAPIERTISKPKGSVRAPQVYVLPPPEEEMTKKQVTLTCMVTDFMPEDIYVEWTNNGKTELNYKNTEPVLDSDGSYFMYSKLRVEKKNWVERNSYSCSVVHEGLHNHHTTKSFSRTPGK
T3 sequence (P16410 36-223 limits assumed): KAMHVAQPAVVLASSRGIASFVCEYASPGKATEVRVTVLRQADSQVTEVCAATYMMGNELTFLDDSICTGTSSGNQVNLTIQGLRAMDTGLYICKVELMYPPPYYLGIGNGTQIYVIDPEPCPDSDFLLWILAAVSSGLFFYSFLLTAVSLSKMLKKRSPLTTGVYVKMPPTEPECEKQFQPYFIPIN

B1: H1H19280P (antibody, human IgG1, V domains shown)
VH: QLQLQESGPGLVKPSETLSLTCIVSGGSTSSNTYYWGWIRQPPGKGLEWIGTIHYSGNPYYDPSLKSRVTISVDTSKNHFSLKLNSVTAADTAVYYCTRQYINFFDFWGQGTLVTVSS
VL: EIVLTQSPATLSLSPGERVTLSCRASQSISRYLAWYQQKPGQAPRVLIYDASNRATDIPARFSGSGSGTDFTLTISSLEPEDFAVYYCQQRSNWPITFGQGTRLEIK
In assay [1], B1 yielded a Kd of 1.03 nM, an off-rate constant (koff) of 0.000346 s⁻¹, an association rate constant (kon) of 337000 M⁻¹ s⁻¹ and a t1/2 of 33.4 min. For the same molecule, in assay [2], the Kd worked out at 0.964 nM, the koff worked out at 0.000309 s⁻¹, the kon stood at 320000 M⁻¹ s⁻¹ and the t1/2 turned out to be 37.4 min. Further, in assay [3], the EC50 worked out at 1.3 nM and the “ratio of RLU signal to parental VI-fibroblast at 0.4 nM Ab” value (from here on “ratio of RLU signal”) stood at 15 ratio. Further, in assay [4], the “% Blockade” value worked out at 99% and the IC50 was 0.11 nM. Also, in assay [5], the “% Blockade” value was determined as 100% and the IC50 was found to be 0.2 nM.

B2: H1H19274P (antibody, human IgG1, V domains shown)
VH: QVQLQESGPGLVKPSETLSLTCTVSGGSINSYYWTWIRQPPGKGLEWIGYVYYSGSTTYNPSLKSRVTISVDTSKNQFFLNLNSVTAAETAVYYCARGTLGYYGMDVWGQGTTVTVSS
VL: EIVLTQSPGTLSLSPGERATLSCRASQSFSNNYLAWYQQKPGQAPRLLIYGTSIRATGIPDRFSGSGSGTDFTLAISRLEPEDFAVYYCQQYGRSPLTFGGGTKVEIK
In the case of B2, in assay [1], binding was put at a Kd of 1.43 nM, the koff is 0.00076 s⁻¹, the on-rate (kon) came out at 530000 M⁻¹ s⁻¹ and the t1/2 was 15.2 min. Also, in assay [2], binding was characterised by a dissociation constant (Kd) of 0.887 nM, the koff is 0.000463 s⁻¹, the kon amounted to 522000 M⁻¹ s⁻¹ and the t1/2 came to 25 min. Also, in assay [3], the EC50 is 0.39 nM and the “ratio of RLU signal” value is 18 ratio. Moreover, in assay [4], the “% Blockade” value was 99% and the IC50 stood at 0.13 nM. In assay [5], the “% Blockade” value came out at 100% and the half-inhibitory concentration (IC50) was 0.25 nM.

B3: H1H19312P (antibody, human IgG1, V domains shown)
VH: QVQLQESGPGLVKPSETLSLTCTVSGGSISSYHWSWIRQPLGKGLEWIGYIYYSGSTNYNPSLKSRVTISVDTSKNQFSLKLSSVTAADTAVYYCARGGSSIWPFDYWGQGTLVTVSS
VL: DIQMTQSPSTLSASVGDRVTITCRASQSISSWLAWYQQKSGKAPKLLISKASTLESGVPSRFSGSGSGTEFTLTISSLQPDDFATYYCQQYNIYSWTFGQGTKVEIK
Consider B3, for which, in assay [1], binding was characterised by a dissociation constant (Kd) of 3.29 nM, the koff was 0.00105 s⁻¹, the kon was 320000 M⁻¹ s⁻¹ and the t1/2 worked out at 11 min. In assay [2], this molecule displayed a dissociation constant (Kd) of 2.28 nM, an off-rate constant (koff) of 0.00076 s⁻¹, an on-rate constant (kon) of 333000 M⁻¹ s⁻¹ and a t1/2 of 15.2 min. In assay [3], the midpoint of the response, the EC50, lay at 0.7 nM and the “ratio of RLU signal” value was found to be 14 ratio. In assay [4], the “% Blockade” value is 97% and the half-maximal inhibitory concentration (IC50) came out at 0.2 nM. For the same molecule, in assay [5], the “% Blockade” value amounted to 99% and the IC50 amounted to 0.51 nM.

B4: H1H19284P (antibody, human IgG1, V domains shown)
VH: EVQLVESGGGLVQPGGSLRLSCAASGFTLSNYVMTWVRQAPGKGLEWVSAISGRGGNSYYADSVKGRFSISRDHSKNTLYLQVNSLRAEDTAVYYCAKAERGYSYGFNWFDPWGQGTLVTVSS
VL: DIQMTQSPSSVSASAGDRVTITCRASQGISSWLAWYQQKPGKAPKLLIYAASSLQSGVPSRFSGSGSGTDFTLTISSLQPEDFASYYCQQGNNFPLTFGGGTKVEIK
For B4, in assay [1], binding was characterised by a dissociation constant (Kd) of 2.49 nM, the off-rate (koff) is 0.000369 s⁻¹, the kon was determined as 148000 M⁻¹ s⁻¹ and the t1/2 was 31.3 min. In assay [2], this molecule came in with an equilibrium dissociation constant (Kd) of 1.57 nM, a koff of 0.000305 s⁻¹, an on-rate (kon) of 194000 M⁻¹ s⁻¹ and a t1/2 of 37.9 min. Besides, the “ratio of RLU signal” value in assay [3] is 7 ratio. Moreover, in assay [4], the “% Blockade” value came to 98% and the IC50 stood at 0.17 nM. Besides, in assay [5], the “% Blockade” value turned out to be 99% and the half-maximal inhibitory concentration (IC50) amounted to 0.31 nM.

B5: H1H19283P (antibody, human IgG1, V domains shown)
VH: QVQLVESGGGLVKPGGSLRLSCAASGFTFSDYYMTWIRQAPGKGLEWVSYISSSGGNIFYADSVKGRFTISRDNAKNSLYLQMNSLRGEDTAVYYCARGLEPYHYYYGMDVWGQGTTVTVSS
VL: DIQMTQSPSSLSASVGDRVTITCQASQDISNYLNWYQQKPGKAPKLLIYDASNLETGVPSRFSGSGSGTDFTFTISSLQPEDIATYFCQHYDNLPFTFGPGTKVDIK
In the case of B5, in assay [1], the affinity, expressed as Kd, was 3.75 nM; the koff is 0.000828 s⁻¹; the on-rate constant (kon) was found to be 221000 M⁻¹ s⁻¹; the t1/2 amounted to 14 min. For the same molecule, in assay [2], the dissociation constant (Kd) amounted to 3.11 nM, the koff was determined as 0.000683 s⁻¹, the kon is 220000 M⁻¹ s⁻¹ and the t1/2 is 16.9 min. Further, in assay [3], the EC50 was 0.79 nM and the “ratio of RLU signal” value is 7 ratio. Further, in assay [4], the “% Blockade” value is 96% and the IC50 worked out at 9.7 nM. In addition, in assay [5], the “% Blockade” value is 99% and the half-inhibitory concentration (IC50) worked out at 1.2 nM.

B6: H1H19278P (antibody, human IgG1, V domains shown)
VH: QVQLVESGGGVVQPGRSLRLSCAASGFTFSSYGMNWVRQAPGKGLEWVAVTWYDGSNKHYADSVKGRFTISRDNSKNTLYLQMYSLRAEDTAMYYCVRGGHLGAFDIWGQGTMVTVSS
VL: EIVLTQSPGTLSLSPGERATLSCRASQSVSSYLAWYQQKPGQAPRLLIYGASSRATGIPDRFSGGGSGTDFTLTISRLEPEDFAVYYCQQYGSSPFTFGPGTKVDIK
With B6, in assay [1], the equilibrium dissociation constant (Kd) turned out to be 2.25 nM, the koff came out at 0.000402 s⁻¹, the kon came to 179000 M⁻¹ s⁻¹ and the t1/2 is 28.8 min. In assay [2], this molecule registered a Kd of 6.11 nM, an off-rate (koff) of 0.00101 s⁻¹, an on-rate (kon) of 166000 M⁻¹ s⁻¹ and a t1/2 of 11.4 min. Also, in assay [3], the EC50 was 0.22 nM and the “ratio of RLU signal” value amounted to 19 ratio. Moreover, in assay [4], the “% Blockade” value was found to be 99% and the IC50 came out at 0.32 nM. Further, in assay [5], the “% Blockade” value came out at 100% and the IC50 turned out to be 0.54 nM.

B7: H1H19279P (antibody, human IgG1, V domains shown)
VH: QVQLVQSGAEVKKPGASVKVSCKASGYTFTDYYIHWVRQAPGQGLEWMGWINPNNGVSNYAQKFQGRVTMTRDTSISTAYMDLIRLRSDDTAVYYCARERASWDYNGVDVWGQGTTVTVSS
VL: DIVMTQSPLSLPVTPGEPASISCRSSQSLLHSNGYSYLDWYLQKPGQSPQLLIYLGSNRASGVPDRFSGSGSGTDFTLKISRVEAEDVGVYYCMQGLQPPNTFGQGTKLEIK
In assay [1], B7 yielded a dissociation constant Kd of 0.752 nM, a koff of 0.000261 s⁻¹, an on-rate (kon) of 346000 M⁻¹ s⁻¹ and a t1/2 of 44.3 min. For the same molecule, in assay [2], binding was put at a Kd of 0.763 nM, the koff was determined as 0.000259 s⁻¹, the association rate constant (kon) is 340000 M⁻¹ s⁻¹ and the t1/2 is 44.6 min. For the same molecule, in assay [3], the 50% effective concentration (EC50) was determined as 0.24 nM and the “ratio of RLU signal” value came out at 18 ratio. In assay [4], the “% Blockade” value amounted to 97% and the IC50 was 0.21 nM. In assay [5], the “% Blockade” value was found to be 100% and the 50% inhibitory concentration (IC50) stood at 0.22 nM.

B8: H1H19294P (antibody, human IgG1, V domains shown)
VH: QVQLVQSGAEVKMSGASVRVSCKASGYTFTSYGISWMRQAPGQGLEWMGWITAYNGNSNYAQKLQGRVTMTTDTSTGTAYMELRSLTSDDTAVYYCARRGDYLGVFPYWGQGTLVTVSS
VL: DIQMTQSPSSLSASVGDRVTITCRASQSISSYLNWYQQKPGKAPNLLIYTASSLQSGVPSRFSGSGSGTDFTLTISSLQPEDFATYYCQQSYSSPLTFGGGTKVEIK
Take B8: in assay [1], the dissociation constant Kd amounted to 1.13 nM, the off-rate constant (koff) was 0.000323 s⁻¹, the association rate constant (kon) was 285000 M⁻¹ s⁻¹ and the t1/2 stood at 35.7 min. In assay [2], this molecule displayed a Kd of 1.02 nM, a koff of 0.000269 s⁻¹, a kon of 263000 M⁻¹ s⁻¹ and a t1/2 of 43 min. Further, in assay [3], a half-maximal effect (EC50) was put at 0.68 nM and the “ratio of RLU signal” value turned out to be 10 ratio. Besides, in assay [4], the “% Blockade” value worked out at 99% and the IC50 was found to be 0.15 nM. Besides, in assay [5], the “% Blockade” value turned out to be 99% and the IC50 stood at 0.25 nM.

B9: H1H19314P2 (antibody, human IgG1, V domains shown)
VH: QVQLVQSGAEVKKPGASVKVSCKASGYTLSSYGISWVRQAPGQGLEWMGWISAYNGNTNYAQKLQGRLTMTTDTSTSTAYMELRSLRSDDTAVYYCSRDGPFKISFFGMDVWGQGTTVTVSS
VL: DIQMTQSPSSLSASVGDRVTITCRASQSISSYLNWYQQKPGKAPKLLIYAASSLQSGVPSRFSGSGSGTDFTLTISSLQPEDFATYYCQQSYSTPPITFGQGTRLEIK
Regarding B9, in assay [1], the Kd came out at 9.87 nM, the off-rate constant (koff) was found to be 0.00113 s⁻¹, the kon is 115000 M⁻¹ s⁻¹ and the t1/2 amounted to 10.2 min. In assay [2], the Kd worked out at 8.57 nM, the off-rate constant (koff) came to 0.000913 s⁻¹, the kon was determined as 107000 M⁻¹ s⁻¹ and the t1/2 was found to be 12.6 min. Also, in assay [3], a half-maximal response (EC50) required 3.4 nM and the “ratio of RLU signal” value amounted to 8 ratio. In assay [4], the “% Blockade” value was found to be 0%. Moreover, the “% Blockade” value in assay [5] is 7%.
